Source: publication PMC4445638 (2015)

T1: DLL4 N-EGF2 (Rattus norvegicus, UniProt D3ZHH1)
T1 chain: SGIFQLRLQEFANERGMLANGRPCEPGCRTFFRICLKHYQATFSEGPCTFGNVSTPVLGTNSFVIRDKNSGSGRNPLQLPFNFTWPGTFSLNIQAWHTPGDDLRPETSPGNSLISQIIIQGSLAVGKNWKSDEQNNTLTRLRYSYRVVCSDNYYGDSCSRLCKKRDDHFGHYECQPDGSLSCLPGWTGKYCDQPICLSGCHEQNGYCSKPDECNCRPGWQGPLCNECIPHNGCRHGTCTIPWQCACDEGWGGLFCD


Biological target: T1, DLL4 N-EGF2
Test: SPR

Kd [µM] | Binder
8.6 | CLTLL [Notch1 EGF10-14]
12.7 | MPRLLAPLLCLTLL [Notch1 EGF1-14]
7.5 | Notch1 411-530 (protein) QDVDECALGANPCEHAGKCLNTLGSFECQCLQGYTGPRCEIDVNECISNPCQNDATCLDQIGEFQCICMPGYEGVYCEINTDECASSPCLHNGRCVDKINEFLCQCPKGFSGHLCQYDVD
